# B1: GST-mCASK-C (CaM kinase II domain from amino acid 1 to 339) (other)
# chain: MADDDVLFEDVYELCEVIGKGPFSVVRRCINRETGQQFAVKIVDVAKFTSSPGLSTEDLKREASICHMLKHPHIVELLETYSSDGMLYMVFEFMDGADLCFEIVKRADAGFVYSEAVASHYMRQILEALRYCHDNNIIHRDVKPHCVLLASKENSAPVKLGGFGVAIQLGESGLVAGGRVGTPHFMAPEVVKREPYGKPVDVWGCGVILFILLSGCLPFYGTKERLFEGIIKGKYKMNPRQWSHISESAKDLVRRMLMLDPAERITVYEALNHPWLKERDRYAYKIHLPETVEQLRKFNARRKLKGAVLAAVSSHKFNSFYGDPPEELPDFSEDPTSSG
# notes: Expressed in E. coli BL21 and immobilised on glutathione-Sepharose 4B beads; not shown: glutathione S-transferase from vector pGEX-2T
# Molecular target: T1, 35S-methionine-luciferase (in vitro translated from the Promega luciferase control plasmid) (UniProt P08659 1-550 = luciferase, 35S-methionine label)
# T1 construct: Control protein in the pull-down; also called control protein luciferase
# T1 sequence (P08659 whole entry): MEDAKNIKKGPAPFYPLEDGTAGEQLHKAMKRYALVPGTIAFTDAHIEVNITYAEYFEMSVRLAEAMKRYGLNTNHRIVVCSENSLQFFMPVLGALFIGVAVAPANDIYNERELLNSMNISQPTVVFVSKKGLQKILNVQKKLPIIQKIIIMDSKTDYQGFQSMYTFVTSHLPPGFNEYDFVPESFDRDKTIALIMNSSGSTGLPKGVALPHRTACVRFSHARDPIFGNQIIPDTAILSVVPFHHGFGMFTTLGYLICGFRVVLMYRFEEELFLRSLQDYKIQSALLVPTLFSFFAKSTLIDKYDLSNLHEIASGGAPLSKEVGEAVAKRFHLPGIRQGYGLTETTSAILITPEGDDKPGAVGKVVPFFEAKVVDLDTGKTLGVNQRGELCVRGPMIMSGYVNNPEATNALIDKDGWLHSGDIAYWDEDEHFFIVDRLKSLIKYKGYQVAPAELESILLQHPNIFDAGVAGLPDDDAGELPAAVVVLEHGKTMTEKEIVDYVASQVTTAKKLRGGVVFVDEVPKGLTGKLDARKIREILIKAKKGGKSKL
# Assay: GST pull-down of 35S-labelled protein on glutathione-Sepharose 4B beads, SDS/PAGE and autoradiography
# Protocol: The CaM kinase II domain of mCASK-C cDNA was amplified by PCR and cloned in frame into SmaI of pGEX-2T and transformed into E. coli BL21 cells. […] For pull-down assays, radiolabeled Acheron and luciferase was produced from pET-25b(+)-Acheron and luciferase controlled plasmid (Promega) by using in vitro TNT Quick Coupled Transcription/Translation System (Promega) with ³⁵S-methionine as the sole source of methionine, following the manufacture's instructions. 5 μl of ³⁵S-methionine-Acheron and ³⁵S-methionine-luciferase were incubated with equal amount of GST or GST-mCASK-C (CaM kinase II domain) bound to glutathione-Sepharose 4B beads, respectively, under constant rocking for 45 minutes in 2 ml of NETN binding buffer. ³⁵S-methionine-luciferase and GST were used as the controls in the binding assays. The Sepharose beads were pelleted and washed extensively with the binding buffer and were analyzed by SDS/PAGE and autoradiography.
# To further confirm the physical interaction between Acheron and mCASK-C, an in vitro protein binding assay was performed. […] The beads were pelleted and washed extensively and the bound protein complex was resolved by SDS/PAGE and detected by autoradiography.
binder,measurement,value
B1,binding result,no binding

# Source: US20050002917A1 (UNIVERSITY OF MASSACHUSETTS, published 2005)
